Reference: US6589738B1, “Genes essential for microbial proliferation and antisense thereto” (priority 1999, dated 2003)
Values after ≈ are worked out from the molar mass of the structure shown.

B1: EcXA083: antisense clone insert, E. coli gene hrpB (nucleic acid, listed as Escherichia coli)
DNA: CGGCTTAGCGCGTCGTTGGCATCGAGCATCGCTCCCATGCCGTTTGCCAGTTGATAGCGTCCATCTTGCC
B2: EcXA072: antisense clone insert, E. coli gene recJ (nucleic acid, listed as Escherichia coli)
DNA: GATTTTTACCGGATTAATTTTAAACATGGTCTGATTTCTTTTATTGAGCTAGTCAAAATGCGGTGATAAGAGCGGGATTGTCCCAATCCACGCTCTTTTTTATAGAGAAGATGACGCTAAATTGGCCAGATATTGTCGATGATAATTTG
B3: EcXA062: antisense clone insert, E. coli gene rep (nucleic acid, listed as Escherichia coli)
DNA: CGCGTGGAGAGTCATCAGTTGCACCTGATCCAGCTCTTCTTCACTCTCACCACGCTCNATCATGTCGCGCAAAGTAAAGCGCGTCACCACCTGGGTGAGCGTCATCGGCTCATCCAGTTCACTGCCTTCCAGCATCTCCGTCATCCAGCTAAACAGTTGGTTGACGTTCTTCATGCGCATTTCGGCGGCTTTCGGGCTGGGCGATGTTTCGTACAGCCAGGATTCATAATCCATGCCATGGATCAGATCACGCACCGCGGCAATCGGCTCCCGCTCCGCCAGACGCTGGATTTCTGCCAACCAGTGAGTGAAGCGGGTCAATGCTTCA
modifications: misc_feature (1)...(328): n = A,T,C or G
notes: antisense clone insert, E. coli gene rep
B4: EcXA059: antisense clone insert encoding a portion of the ypjA gene of Escherichia coli (nucleic acid, listed as Escherichia coli)
DNA: NACCANGANTGGGACCCAAATGAAAATTGAACTGAAGATTACAATCAATTTAACANCAAGTTACACAACCAATTCAGACTCCGCCAGCCCACCAATCATGATTGGACGGTGTAAGGACAACACCAACAAAAACAGGAAGTTAGAAGTCTNAGCAAAACACCGACCAGACGGTGAGGAGACATAAAAGGATACGCAAAGGAGCCGCGGCTCCTGGTAACATGAAAGCCCACAGATGTGGGCTTTTTCGTTGATGGTCAGAACGACCAGTTCACACCAGCTACCGCGTTCCACGGGGATTCCACACCGGCACTATGGCTATACCCCACCCCAAGATGCCCGCTTAACGTACTGCTGAATGAGGCTTTAATACCTGCCTGGTATATTCCACGTCTGCCCGACAAATAATTGACGAAATTACCGNCACTATTCACTTTCACCCGGTTATCATCGACAAATTCTTTGCGCACAAGCCGNCTTCAGCCACGGNTCAACTTCCATACCGNTCCCCAGACGCATGTTGTAACTCAACGTTGCGCCCAGTTCACGATATATACTGCGGGTATCGACTGATTTCGATTTCATGCCATTGGATAAATGATATTCGGGGTTATCAGCGGTGAAACCCGTTNACGATGCATACNGGGTCAGGGTTCAATTACCATCGGTAAATCGCATTCCCGGTTTCAATGTGACCGCCAANCCCGTTGCTGTNGGTAACTGGCATTGGCGGGTTCANCGGTGGTAATTTTAACCTGGTACGNTACTTTTAAAACGGGTTAAGCTTTACCGAANACCGTNCANNATTGGAAACCCNCTTTTAATGGTTNCCCAACTNGGNN
modifications: misc_feature (1)...(839): n = A,T,C or G
notes: antisense clone insert encoding a portion of the ypjA gene of Escherichia coli
B5: EcXA104: antisense clone insert, E. coli gene hsdS (nucleic acid, listed as Escherichia coli)
DNA: GACGCGGCGAACGATTTCGGCTTGTTCTTTTACTGGAGGTAATAAAACAACTTGGGATTTGATATCTTTTCCTGAAATACCTTTTTGACCAGAAGTTGTTTTCACGCAGTTCATCATTGCATTTCGTGCTGAGGGGGATGAAAAAAATATTTCGATATATTCTGGTAAAGCATCTTT
B6: EcXA082: antisense clone insert, E. coli genes hybC; hybB (nucleic acid, listed as Escherichia coli)
DNA: TGCTTTGCTCGCCTCATGACGATTATGATCGTTTTGTTTTAAAGGAGGAAGTATCGGCAGTAGACGAATGAGTACGATGTAAGCGCAAATCTCAATAGCCACAAAACCAATAGAAATCAACAGTTCTTCCCAGGTCGGGAAGTA

How the values were obtained:
[1] = tested on: Bacterial cells containing IPTG-inducible antisense nucleic acid against rplL and rplJ (50S ribosomal subunit proteins); assay: microbe, parasite or virus in culture; format: cell-based, E. coli; conditions: Escherichia coli, read-out: IC50 (+IPTG)
Experimental: Antibiotics of various chemical classes and modes of action were purchased from Sigma Chemicals (St. Louis, Mo.). Stock solutions were prepared by dissolving each antibiotic in an appropriate aqueous solution based on information provided by the manufacturer. The final working solution of each antibiotic contained no more than 0.2% (w/v) of any organic solvent. To determine their potency against a bacterial strain engineered for expression of an antisense against a proliferation-required gene encoding 50S ribosomal protein, each antibiotic was serially diluted two or three fold in growth medium supplemented with the appropriate antibiotic for maintenance of the anti-sense construct. […]
Cells for the assay were prepared as follows. […] The plate was then loaded into a plate reader, incubated at constant temperature, and cell growth was monitored in each well by the measurement of light scattering at 595 nm. Growth was monitored every 5 minutes until the cell culture attained a stationary growth phase. For each concentration of antibiotic, a percentage inhibition of growth was calculated at the time point corresponding to mid-exponential growth for the associated control wells (no antibiotic, plus or minus IPTG). For each antibiotic and condition (plus or minus IPTG), a plot of percent inhibition versus log of antibiotic concentration was generated and the IC50 determined.

Escherichia coli = assay: Growth inhibition after IPTG induction of antisense RNA expression (Example 1; score of Example 12); format: cell-based; conditions: for effect of antisense expression on E. coli growth: 1 mM IPTG
Experimental: (§1) To study the effects of transcriptional induction in liquid medium, growth curves were carried out by back diluting cultures 1:200 into fresh media with or without 1 mM IPTG and measuring the OD450 every 30 minutes (min). To study the effects of transcriptional induction on solid medium, 10^2, 10^3, 10^4, 10^5, 10^6, 10^7 and 10^8 fold dilutions of overnight cultures were prepared. Aliquots of from 0.5 to 3 μl of these dilutions were spotted on selective agar plates with or without 1 mM IPTG. After overnight incubation, the plates were compared to assess the sensitivity of the clones to IPTG.
Of the numerous clones tested, some clones were identified as containing a sequence that inhibited E. coli growth after IPTG induction. Accordingly, the gene to which the inserted nucleic acid sequence corresponds, or a gene within the operon containing the inserted nucleic acid, may be required for proliferation in E. coli.
(§2) Molecule No. EcXA059, encoding a portion of the ypjA gene of Escherichia coli, was either transformed directly into Enterobacter cloacae, Salmonella typhimurium and/or Klebsiella pneumoniae or subcloned into an expression vector functional in these species and the subclones transformed into these organisms. Suitable expression vectors are well known in the art. These expression vectors were introduced into Enterobacter cloacae, Salmonella typhimurium and/or Klebsiella pneumoniae cells that were then assayed for growth inhibition according to the method of Example 1. After growth in liquid culture, cells were plated at various serial dilutions and a score determined by calculating the log difference in growth for INDUCED vs. UNINDUCED antisense RNA expression as determined by the maximum 10 fold dilution at which a colony was observed. If there was no effect of antisense RNA expression in one organism, the clone is given a score of zero “0” in that organism. In contrast, a score of “8” means that 10^8 times more cells were required to observe a colony formed on the induced state than in the non-induced state under the conditions used and in that organism.

Klebsiella pneumoniae = assay: Growth inhibition by E. coli antisense nucleic acids in another microorganism, INDUCED vs. UNINDUCED (Example 12, Table V); format: cell-based; conditions: for Sensitivity of K. pneumoniae to antisense nucleic acid (growth inhibition, INDUCED vs. UNINDUCED): antisense RNA expression induced with IPTG, serial dilution plating
Experimental: as §1, §2
(§3) Expression vectors which inhibited growth of E. coli upon induction of antisense RNA expression with IPTG were transformed directly into Enterobacter cloacae, Klebsiella pneumonia or Salmonella typhimurium. The transformed cells were then assayed for growth inhibition according to the method of Example 1. After growth in liquid culture, cells were plated at various serial dilutions and a score determined by calculating the log difference in growth for INDUCED vs. UNINDUCED antisense RNA expression as determined by the maximum 10 fold dilution at which a colony was observed. If there was no effect of antisense RNA expression in a microorganism, the clone is minus in Table V below. In contrast, a positive in Table V below means that at least 10 fold more cells were required to observe a colony on the induced plate than on the non-induced plate under the conditions used and in that microorganism.

Salmonella typhimurium = assay: as above; format: cell-based; conditions: for Sensitivity of S. typhimurium to antisense nucleic acid (growth inhibition, INDUCED vs. UNINDUCED): antisense RNA expression induced with IPTG, serial dilution plating
Experimental: as §1, §2, §3

Enterobacter cloacae = assay: as above; format: cell-based; conditions: for Sensitivity of E. cloacae to antisense nucleic acid (growth inhibition, INDUCED vs. UNINDUCED): antisense RNA expression induced with IPTG, serial dilution plating
Experimental: as §1, §2, §3

Molecule | effect of antisense expression on E. coli growth (Escherichia coli) | Sensitivity of K. pneumoniae to antisense nucleic acid (growth inhibition, INDUCED vs. UNINDUCED) (Klebsiella pneumoniae) | Sensitivity of S. typhimurium to antisense nucleic acid (growth inhibition, INDUCED vs. UNINDUCED) (Salmonella typhimurium) | Sensitivity of E. cloacae to antisense nucleic acid (growth inhibition, INDUCED vs. UNINDUCED) (Enterobacter cloacae) | also measured
NC[C@H]1O[C@H](O[C@H]2[C@H](O)[C@@H](O[C@H]3O[C@H](CO)[C@@H](O)[C@H](N)[C@H]3O)[C@H](N)C[C@@H]2N)[C@H](N)C[C@@H]1O [Tobramycin] | – | – | – | – | IC50 [1]: 0.0705 µg/mL (≈ 0.151 µM)
B1 | reduction in cell growth | – | – | – | –
B2 | reduction in cell growth | + (a positive in Table V below means that at least 10 fold more cells were required to observe a colony on the induced plate than on the non-induced plate) | + (a positive in Table V below means that at least 10 fold more cells were required to observe a colony on the induced plate than on the non-induced plate) | – | –
B3 | reduction in cell growth | – | – | – | –
B4 | – | + (a positive in Table V below means that at least 10 fold more cells were required to observe a colony on the induced plate than on the non-induced plate) | + (a positive in Table V below means that at least 10 fold more cells were required to observe a colony on the induced plate than on the non-induced plate) | + (a positive in Table V below means that at least 10 fold more cells were required to observe a colony on the induced plate than on the non-induced plate) | score (log difference in growth for INDUCED vs. UNINDUCED antisense RNA expression) (Escherichia coli; Escherichia coli, maximum 10 fold dilution at which a colony was observed): 8; score (log difference in growth for INDUCED vs. UNINDUCED antisense RNA expression) (Enterobacter cloacae; Enterobacter cloacae, IPTG induction): 8; score (log difference in growth for INDUCED vs. UNINDUCED antisense RNA expression) (Klebsiella pneumoniae; Klebsiella pneumoniae, IPTG induction): > 7; score (log difference in growth for INDUCED vs. UNINDUCED antisense RNA expression) (Salmonella typhimurium; Salmonella typhimurium, IPTG induction): 8
B5 | reduction in cell growth | + (a positive in Table V below means that at least 10 fold more cells were required to observe a colony on the induced plate than on the non-induced plate) | + (a positive in Table V below means that at least 10 fold more cells were required to observe a colony on the induced plate than on the non-induced plate) | + (a positive in Table V below means that at least 10 fold more cells were required to observe a colony on the induced plate than on the non-induced plate) | –
B6 | reduction in cell growth | – | – | + (a positive in Table V below means that at least 10 fold more cells were required to observe a colony on the induced plate than on the non-induced plate) | –
